# Measurements: CN114349852A
# Tests used:
# [1] = target: H3N2流感病毒血凝素蛋白 (A/Texas/50/2012) (H3N2 influenza A virus (A/Texas/50/2012)); experiment: indirect ELISA on coated H3N2 hemagglutinin, ascites
# [2] = target: H3N2流感病毒血凝素蛋白 (A/Texas/50/2012) (H3N2 influenza A virus (A/Texas/50/2012)); experiment: indirect ELISA on coated H3N2 hemagglutinin, hybridoma culture supernatant
binder,measurement,setting,value
"抗H3N2流感病毒血凝素蛋白单克隆抗体ZJU32-01 (antibody, V domains shown) VH: QVQLQQSGAELMKPGASVKISCKATGYIFSSYWIEWVKQRPGHGLEWIGEILPGSGRTNYKEIFKGKATFTADTSSNTAYMQLSSLTSEDSAVYYCARTRTTGSSDWGQGTTLTVSS VL: DVLMTQTPLSLPVSLGDQASISCRSSQTTVHSNGNTYLEWYLQKPGQSPKLLIYKVSNRFFGVPDRFSGSGSGTDFTLKISRVEAEDLGVYYCFQGSHVPYTFGGGTKLEIK",效价 (ELISA titer) (dilution (1:x)),[1],2048
same,效价 (ELISA titer) (dilution (1:x)),[2],64
